Measured values: PMC3581365 (The Journal of Biological Chemistry, 2013)

T1: HP0893 expressed as a C-terminal His tag fusion (HP0893-His) (H. pylori 26695, UniProt O25553 1-95)
T1 sequence (looked up): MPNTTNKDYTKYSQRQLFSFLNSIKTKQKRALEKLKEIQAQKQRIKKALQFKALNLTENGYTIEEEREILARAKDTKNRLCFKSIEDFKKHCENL

T2: HP0892 fused with His tag at the C terminus (HP0892-His) (H. pylori 26695, UniProt O25552 1-90)
T2 sequence: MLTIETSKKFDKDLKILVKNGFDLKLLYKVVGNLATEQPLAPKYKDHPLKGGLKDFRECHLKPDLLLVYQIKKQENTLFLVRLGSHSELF

B1: HP0892 without any purification tag or non-native residues (natural protein, H. pylori 26695, UniProt O25552 1-90, looked up)
chain: T2 sequence

Experiments:
[1] = target: T1, HP0893 expressed as a C-terminal His …; assay: pull-down
[2] = target: T2, HP0892 fused with His tag at the C …; assay: NMR titration

Row | Binder | stoichiometry N [1] | stoichiometry N [2]
1 | B1 | 1 | –
2 | EREILARAKDTKNRLCFKSIEDFKKHCENL (peptide, UniProt O25553 66-95, looked up) [HP0893Ctp, 30-residue peptide corresponding to the C-terminal region (Glu-66 to Leu-95) of HP0893] | – | 1
